This note sets out measurements from US20230383007A1 (BIOSION, published 2023).

By IC50 is commonly meant the concentration needed to halve the response being measured. By EC50 is commonly meant the concentration giving half of the maximal effect. A lower EC50 goes with an effect from little substance. The Kd is the concentration at which binding is half-saturated. The koff is a measure of how fast the partners let go of each other. Low values mean slow dissociation, high ones fast dissociation. Broadly, the kon is the rate constant with which the complex forms. A low value points to slower complex formation.

The target in assay [1] is T1, human TROP2-his protein (human, UniProt P09758 27-274).
T1 construct: also called biotin labeled human TROP2-his protein
T1 sequence: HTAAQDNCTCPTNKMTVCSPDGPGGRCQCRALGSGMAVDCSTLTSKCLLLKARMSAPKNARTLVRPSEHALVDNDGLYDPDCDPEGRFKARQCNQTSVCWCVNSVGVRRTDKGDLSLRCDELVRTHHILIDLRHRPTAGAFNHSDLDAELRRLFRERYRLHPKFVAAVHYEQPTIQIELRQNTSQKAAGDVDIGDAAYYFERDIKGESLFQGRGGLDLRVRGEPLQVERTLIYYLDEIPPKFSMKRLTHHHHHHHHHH
As to the kind of experiment: competitive ELISA: antibody pre-mixed with biotin labeled human TROP2-his, added to plate coated with the benchmark (sacituzumab analog); unit taken from the x axis (ng/mL). On the procedure:
The anti-TROP2 antibodies were tested for their epitope binding in a competitive ELISA assay. Briefly, 100 μl of the benchmark at 1 μg/mL in PBS was coated on 96-well micro plates for 2 hours at 37° C. ELISA plates were washed once with wash buffer (PBS+0.05% v/v Tween-20, PBST) and then blocked with 200 μl blocking buffer (5% w/v non-fatty milk in PBST) for 2 hours at 37° C. While blocking, the anti-TROP2 antibodies of the disclosure or controls were diluted with biotin labeled human TROP2-his protein (SEQ ID NO: 16, 34 ng/mL in 2.5% w/v non-fatty milk in PBST), starting at 80 nM with a 5-fold serial dilution, and incubated at room temperature for 40 minutes. After plate washing 4 times, the antibody/TROP2-his protein mixtures were added to benchmark coated plates, 100 μl per well. After incubation at 37° C. for 40 minutes, plates were washed 4 times again using wash buffer. Then the plates were added and incubated with 100 μl Peroxidase Streptavidin (1:10000 dilution in PBST buffer, Jackson Immunoresearch, Cat #016-030-084) for 40 minutes at 37° C. Plates were washed again using wash buffer. […] The absorbance of each well was read on a microplate reader using dual wavelength mode with 450 nm for TMB and 630 nm as the reference wavelength, and the OD (450-630) values were plotted against antibody concentration. Data was analyzed using Graphpad Prism software and IC₅₀ values were reported.
Background: ELISA stands for enzyme-linked immunosorbent assay.

In assay [2] the target is T1, human TROP2-his protein. As to the kind of experiment: indirect ELISA, plate coated with human TROP2-his; unit taken from the x axis (Con of mAb, ng/mL). The method, then: The single domain antibodies of the disclosure were tested in the indirect ELISA for their cross-reaction with cynomolgus TROP2 protein. Briefly, 96-well micro plates were coated with 100 μl 2 μg/ml human TROP2-his protein (prepared in-house with SEQ ID NO: 16) in carbonate/bicarbonate buffer (pH 9.6) overnight at 4° C. ELISA plates were washed once with wash buffer (PBS+0.05% v/v Tween-20, PBST) and then blocked with 200 μl/well blocking buffer (5% w/v non-fatty milk in PBST) for 2 hours at 37° C. Plates were washed 4 times and incubated with 100 μl/well serially diluted anti-TROP2 antibodies of the disclosure or controls (starting at 66.7 nM, 5-fold serial dilution in 2.5% w/v non-fatty milk in PBST) for 40 minutes at 37° C. ELISA plates were washed 4 times again and incubated with Peroxidase AffiniPure F(ab′)₂ Fragment Goat Anti-Human IgG, Fey fragment specific (Jackson Immuno Research, Cat #109-036-098, 1:5000 dilution in PBST buffer, 100 μl/well) for 40 minutes at 37° C. After a final wash, plates were incubated with 100 μl/well TMB (Innoreagents) at room temperature. The reaction was stopped 3-10 minutes later at room temperature with 50 μl/well 1M H₂SO₄, and the absorbance of each well was read on a microplate reader using dual wavelength mode with 450 nm for TMB and 630 nm as the reference wavelength. The OD (450-630) values were plotted against antibody concentration. Data was analyzed using Graphpad Prism software and EC₅₀ values were reported.

The target in assay [3] is T1, human TROP2-his protein. As to the kind of experiment: indirect ELISA, plate coated with 1 ug/ml TROP2-his; bacterial culture supernatant. The method, then:
(§1) ELISA plates were coated with 100 μl 1 μg/ml human TROP2-his protein (in house made with SEQ ID NO: 16), or 1 μg/ml cynomolgus TROP2-his protein (in house made with SEQ ID NO: 19) in carbonate/bicarbonate buffer (pH 9.6) overnight at 4° C., washed once with wash buffer (PBS+0.05% v/v Tween-20, PBST) and then blocked with 200 μl/well blocking buffer (5% w/v non-fatty milk in PBST) for 2 hours at 37° C. Plates were washed 4 times, and respectively incubated with 100 μl bacterial culture supernatant, and sacituzumab (used as the benchmark, also referred to as BM or BM1 hereinafter, in house made with heavy chain and light chain amino acid sequences set forth in SEQ ID NOs: 17 and 18) in 5% w/v non-fatty milk in PBST at 200 ng/ml, for 40 minutes at 37° C. The plates were washed 4 times, and incubated with THE™ HA Tag Antibody [HRP], mAb, Mouse Antibody (1:5000 dilution in PBST, GenScript, Cat #A01296, 100 μl/well, for plates with bacterial culture supernatans of the disclosure) or Peroxidase AffiniPure F(ab′)₂ Fragment Goat Anti-Human IgG, Fey fragment specific (Jackson Immunoresearch, Cat #109-036-098, for plates with the benchmark), for 40 minutes at 37° C. After a final wash, plates were incubated with 100 μl/well ELISA substrate TMB (Innoreagents, Cat #TMB-S-002) at room temperature. The reaction was stopped in 3-10 minutes with 50 μl/well 1M H₂SO₄, and the absorbance of each well was read on a microplate reader using dual wavelength mode with 450 nm for TMB and 630 nm as the reference wavelength. When the OD of a sample well was 2 times higher than the OD of the blank well, the sample can be determined as positive.

Assay [4] has as its target T2, cynomolgus TROP2-his protein (cynomolgus, UniProt P09758 27-272 (human entry), limits assumed).
T2 construct: also called Cyno TROP2-his; Cynomolgus monkey TROP2-his protein
T2 chain: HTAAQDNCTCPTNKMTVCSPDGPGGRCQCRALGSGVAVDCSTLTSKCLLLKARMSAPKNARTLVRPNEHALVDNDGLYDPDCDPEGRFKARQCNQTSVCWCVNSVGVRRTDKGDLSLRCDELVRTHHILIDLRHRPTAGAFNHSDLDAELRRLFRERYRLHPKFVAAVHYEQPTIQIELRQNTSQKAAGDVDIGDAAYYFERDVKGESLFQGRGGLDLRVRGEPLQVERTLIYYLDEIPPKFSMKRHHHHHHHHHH
Described as above. The method, then: as §1

Assay [5] concerns the target T1, human TROP2-his protein. As to the kind of experiment: SPR Biacore T200; antibody captured on anti-human IgG CM5 chip, TROP2-his as analyte in 2-fold dilutions from 160 nM; 1:1 Langmuir fit. From the text: (§2) The purified anti-TROP2 mouse monoclonal antibodies (mAbs) were characterized for binding affinity and binding kinetics by Biacore T200 system (GE healthcare, Pittsburgh, PA, USA). Briefly, goat anti-human IgG (GE healthcare, Cat #BR100839, Human Antibody Capture Kit) was covalently linked to a CM5 chip (carboxy methyl dextran coated chip from GE healthcare #BR100530) via primary amines, using a standard amine coupling kit (GE healthcare, Pittsburgh, PA, USA) provided by Biacore. Un-reacted moieties on the chip (biosensor) surface were blocked with ethanolamine. The anti-TROP2 antibodies of the disclosure and the benchmark at the concentration of 2 μg/ml were respectively flowed onto the chip at a flow rate of 10 μL/min. Then, serially diluted human TROP2-his protein (prepared in-house with SEQ ID NO: 16), or cynomolgus TROP2-his protein (prepared in-house with SEQ ID NO: 19), 2-fold dilution in HBS-EP⁺ buffer (provided by Biacore) starting at 160 nM, were flowed onto the chip at a flow rate of 30 μL/min. The antigen-antibody association kinetics was followed for 2 minutes and the dissociation kinetics was followed for 10 minutes. The association and dissociation curves were fit to a 1:1 Langmuir binding model using BIAcore evaluation software.
In general terms: In SPR one partner is held on a chip, and binding of the other changes the refractive index at the surface.

For assay [6], the target named is T2, cynomolgus TROP2-his protein. The description is as above.
Description: as §2

B1: single domain antibody 01-5A (VHH)
VHH: QVQLVESGGGTVGAGGSLRLSCVVSGLPYERYCVAWFRQGPGKEREGVARILSDGTTSYSDSVKGRFTISKDNAKNTLYLQMNSLKSEDTATYYCAAEAFRPFTPSDGDCTTVLGIDYWGKGTLVTVSS
In the case of B1, the IC50 in the assay with human TROP2-his protein [1] turned out to be 0.0417 µg/mL. The molecule also displayed an EC50 in the assay with human TROP2-his protein [2] of 0.0177 µg/mL. The “Indirect ELISA OD (450-630)” value in the assay with human TROP2-his protein [3] was 1.03 OD (450-630). Besides, the “Indirect ELISA OD (450-630)” value in assay [4] is 0.56 OD (450-630). Moreover, in the assay with human TROP2-his protein [5], the Kd came to 97.5 pM, the koff worked out at 2.73e-05 s⁻¹ and the kon worked out at 280000 M⁻¹ s⁻¹. In assay [6], this molecule came in with a Kd of 647 pM, a koff of 0.000172 s⁻¹ and a kon of 266000 M⁻¹ s⁻¹.
